Test results as given in US20260167959A1, “APTAZYME-BASED REGULATABLE GENE EXPRESSION SYSTEMS” (REJUVENATE BIO INC, priority 2022, published 2026).
Positions count from the first letter of the chain named.

B1: RA058 (nucleic acid)
DNA: GCGCGTCCTGGATTCGCGGAAACGCGTACATCCAGAGAATACCAGCATCGTCTTGATGCCCTTGGAAGTCTCGCTGACGAGTCCCAAATAGGACGAAACGCGC
modifications: expressed or natural sequence
B2: RA056 (nucleic acid)
DNA: GCGCGTCCTGGATTCGCGGAAACGCGTACATCCAGCTGACGAGTCCCGAGAATACCAGCATCGTCTTGATGCCCTTGGAAGTCTCAAATAGGACGAAACGCGC
modifications: expressed or natural sequence
B3: RA062 (nucleic acid)
DNA: GCGCGTCCTGGATTCGCGGAAACGCCCGGAATACCAGCATCGTCTTGATGCCCTTGGAAGTCCGGGTACATCCAGCTGACGAGTCCCAAATAGGACGAAACGCGC
modifications: expressed or natural sequence
B4: RA064 (nucleic acid)
DNA: GCGCGTCCTGGATTCGCGGAAACGCGTACAGAATACCAGCATCGTCTTGATGCCCTTGGAAGTCTATCCAGCTGACGAGTCCCAAATAGGACGAAACGCGC
modifications: expressed or natural sequence
B5: RA078 (nucleic acid)
DNA: GCGCGTCCTGGATTCGCGGAAACGCGTACATCCAGCTGACGAGTCCCAAATAGGACGAAACGCCGAGAATACCAGCATCGTCTTGATGCCCTTGGAAGTCTCGGC
modifications: expressed or natural sequence
B6: RA079 (nucleic acid)
DNA: GCGCGTCCTGGATTCGCGGAAACGCGTACATCCAGCGAGAATACCAGCATCGTCTTGATGCCCTTGGAAGTCTCGCTGACGAGTCCCAAATAGGACGAAACGCGC
modifications: expressed or natural sequence
B7: RA069 (nucleic acid)
DNA: GCGCGTCCTGGATTCGCGGAAACGCGTACATCCAGCTGACGAGTCCCGGAATACCAGCATCGTCTTGATGCCCTTGGAAGTCCAAATAGGACGAAACGCGC
modifications: expressed or natural sequence
B8: RA063 (nucleic acid)
DNA: GCGCGTCCTGGATTCAGTGATACCAGCATCGTCTTGATGCCCTTGGCAGCACTGCGGAAACGCGTACATCCAGCTGACGAGTCCCAAATAGGACGAAACGCGC
modifications: expressed or natural sequence
B9: RA067 (nucleic acid)
DNA: GCGCGTCCTGGATTCGCGGAAACGCGTACATCCAGTGATACCAGCATCGTCTTGATGCCCTTGGCAGCACTAGCTGACGAGTCCCAAATAGGACGAAACGCGC
modifications: expressed or natural sequence
B10: RA074 (nucleic acid)
DNA: GCGCGTCCTGGATTCGCGGAAACGCGTACATCCAGCTGACGAGTCAGAATACCAGCATCGTCTTGATGCCCTTGGAAGTCTCCAAATAGGACGAAACGCGC
modifications: expressed or natural sequence
B11: RA054 (nucleic acid)
DNA: GAGTGATACCAGCATCGTCTTGATGCCCTTGGCAGCACTCGCGTCCTGGATTCGCGGAAACGCGTACATCCAGCTGACGAGTCCCAAATAGGACGAAACGCGC
modifications: expressed or natural sequence
B12: RA006 (nucleic acid)
DNA: GCGCGTCCTGGATTCGCGGAAACGCGTACATCCAGCTGACGAGTCCCAAATAGGACGAAACGAGTGATACCAGCATCGTCTTGATGCCCTTGGCAGCACTCGC
modifications: expressed or natural sequence
B13: RA071 (nucleic acid)
DNA: B12 DNA with A63C, T65G, G66A, C94A, C97T, A98C, T100G
modifications: expressed or natural sequence
B14: RA057 (nucleic acid)
DNA: GCGCGTCCTGGATTCGCGGAAACGCGTACATCCAGCTGACGAGTCCCAAATAGGACAGAATACCAGCATCGTCTTGATGCCCTTGGAAGTCTGAAACGCGC
modifications: expressed or natural sequence
B15: RA073 (nucleic acid)
DNA: GCGCGTCCTGGATTCGCGGAAACGCGTACACGGAATACCAGCATCGTCTTGATGCCCTTGGAAGTCCGTCCAGCTGACGAGTCCCAAATAGGACGAAACGCGC
modifications: expressed or natural sequence
B16: RA077 (nucleic acid)
DNA: GCGCGTCCAGTGATACCAGCATCGTCTTGATGCCCTTGGCAGCACTTGGATTCGCGGAAACGCGTACATCCAGCTGACGAGTCCCAAATAGGACGAAACGCGC
modifications: expressed or natural sequence
B17: RA076 (nucleic acid)
DNA: GCGCGTCCTGGATTCGCGGGAGAATACCAGCATCGTCTTGATGCCCTTGGAAGTCTCAAACGCGTACATCCAGCTGACGAGTCCCAAATAGGACGAAACGCGC
modifications: expressed or natural sequence
B18: RA059 (nucleic acid)
DNA: GCGCGTCCTGGATTCCCGGAATACCAGCATCGTCTTGATGCCCTTGGAAGTCCGGGCGGAAACGCGTACATCCAGCTGACGAGTCCCAAATAGGACGAAACGCGC
modifications: expressed or natural sequence
B19: RA061 (nucleic acid)
DNA: GCGCGTCCTGGATTCGCGGAAACGCGTACATCCAGCTGACGAGTCCCAAATAGGACGAAACGCGCGGAATACCAGCATCGTCTTGATGCCCTTGGAAGTCC
modifications: expressed or natural sequence
B20: RA065 (nucleic acid)
DNA: GCTGTCACCGGAATACCAGCATCGTCTTGATGCCCTTGGAAGTCCGGTCTGATGAGTCCCAGAAGGACGAAACAGC
modifications: expressed or natural sequence
B21: RA007 (nucleic acid)
DNA: GCGCGTCCTGGATTCGCGGAAACGCGTACATCCAGCTGACGAGTCCCAAATAGGACGAAACGCGAGAATACCAGCATCGTCTTGATGCCCTTGGAAGTCTCGCGC
modifications: expressed or natural sequence
B22: RA075 (nucleic acid)
DNA: GCGCGTCCTGGATTCGCGGAAACGCGTACATCCAGCTGACGAGTCCCAAATAGGACGAAAGTGATACCAGCATCGTCTTGATGCCCTTGGCAGCACTACGCGC
modifications: expressed or natural sequence
B23: RA066 (nucleic acid)
DNA: GCGCGTCCTGGATTCGCGGAAAGAATACCAGCATCGTCTTGATGCCCTTGGAAGTCTACGCGTACATCCAGCTGACGAGTCCCAAATAGGACGAAACGCGC
modifications: expressed or natural sequence
B24: RA070 (nucleic acid)
DNA: GCGCGTCCTGGATTCGCGGAAACGCGTACATCCAGCTGAGTGATACCAGCATCGTCTTGATGCCCTTGGCAGCACTACGAGTCCCAAATAGGACGAAACGCGC
modifications: expressed or natural sequence
B25: RA005 (nucleic acid)
DNA: GCGCGTCCTGGATTCGCGGAAACCGGAATACCAGCATCGTCTTGATGCCCTTGGAAGTCCGGCGCGTACATCCAGCTGACGAGTCCCAAATAGGACGAAACGCGC
modifications: expressed or natural sequence
B26: RA055 (nucleic acid)
DNA: GCGCGTCCTGGATTCGCGGCGAGAATACCAGCATCGTCTTGATGCCCTTGGAAGTCTCGAAACGCGTACATCCAGCTGACGAGTCCCAAATAGGACGAAACGCGC
modifications: expressed or natural sequence
B27: RA068 (nucleic acid)
DNA: GCGCGTCCTGGATTCGCCCGGAATACCAGCATCGTCTTGATGCCCTTGGAAGTCCGGGGAAACGCGTACATCCAGCTGACGAGTCCCAAATAGGACGAAACGCGC
modifications: expressed or natural sequence
B28: RA060 (nucleic acid)
DNA: GCGCGTCCTGGATTCGCGGAAACGCGTACATCCAGCTGACGAGTCCCAAATAGGACGAAACGCGGGAATACCAGCATCGTCTTGATGCCCTTGGAAGTCCC
modifications: expressed or natural sequence
B29: RA072 (nucleic acid)
DNA: GCGCGTCCTGGATTCGCGGAAACGCGTACCGAGAATACCAGCATCGTCTTGATGCCCTTGGAAGTCTCGATCCAGCTGACGAGTCCCAAATAGGACGAAACGCGC
modifications: expressed or natural sequence

Tested on: Renilla luciferase RNA
Experiment: Barcoded aptazyme variant library screen: un-cleaved Renilla luciferase RNA by barcode read counts, HEK293-T cells
Assay type: cell-based
Settings: un-cleaved Renilla luciferase RNA, HEK293-T cells cultured with 1 mM theophylline (ON) over without theophylline (OFF); barcode read counts, triplicate
Procedure, shortened: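 Aptazyme variants (seven theophylline aptamers inserted after each T3H48 ribozyme nucleotide, 9-nt barcoded) cloned into the 3′ UTR of Renilla luciferase in psiCHECK-2; cells cultured ± theophylline, in triplicate. RNA and DNA barcodes amplified and sequenced; normalized read counts gave un-cleaved RNA fraction and ON/OFF fold-change.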

Molecule | Fold change in RNA expression between the ON state and the OFF state [fold]
B1 | 2.0
B2 | 2.0
B3 | 1.9
B4 | 1.9
B5 | 1.8
B6 | 1.8
B7 | 1.8
B8 | 1.9
B9 | 1.8
B10 | 1.8
B11 | 2.0
B12 | 5.0
B13 | 1.8
B14 | 2.0
B15 | 1.8
B16 | 1.8
B17 | 1.8
B18 | 1.9
B19 | 1.9
B20 | 1.9
B21 | 4.5
B22 | 1.8
B23 | 1.9
B24 | 1.8
B25 | 5.2
B26 | 2.0
B27 | 1.8
B28 | 1.9
B29 | 1.8
